Starred links: 1 amine or outer side, 2 acyl side, 3 side chain; linkers in the order of their positions; H or OH if unused. Positions of bridges follow the written chain, without caps; N, C: chain ends. Non-standard residues stand in square brackets, D forms with d. Groups on a side chain read outwards from the residue. Primed or numbered codes have the meaning given here. ξ: configuration not given here. *: point of attachment. Af3(MSAc) = 3-aminophenylalanine with 2-methanesulfonylacetyl on the ring amine, CS(=O)(=O)CC(=O)Nc1cccc(C[C@H](N[*:1])C(=O)[*:2])c1; Af3(Iva) = 3-aminophenylalanine with isovaleryl on the ring amine, CC(C)CC(=O)Nc1cccc(C[C@H](N[*:1])C(=O)[*:2])c1; DOTA(In) = O=C1CN2CCN3CCN(CC(=O)*)CCN(CC2)CC(=O)[O][In]([O]1)[O]C(=O)C3; APAc″ = 2-(4-(amino)piperidin-1-yl)acetic acid, NC1CCN(CC(=O)*)CC1; DOTA = O=C(O)CN1CCN(CC(=O)O)CCN(CC(=O)*)CCN(CC(=O)O)CC1; Trp(5-Cl) = N[C@@H](Cc1c[nH]c2ccc(Cl)cc12)C(=O)O; Phe(3,4-Cl2) = N[C@@H](Cc1ccc(Cl)c(Cl)c1)C(=O)O; Phe(3-CF3) = N[C@@H](Cc1cccc(C(F)(F)F)c1)C(=O)O; ξTrp(7-Me) = Cc1cccc2c(CC(N)C(=O)O)c[nH]c12; ξTrp(1-Me) = Cn1cc(CC(N)C(=O)O)c2ccccc21; Ttds(3) = NCCCOCCOCCOCCCNC(=O)CCC(=O)*; dmo = (R)-dimethylornithine (D form); mXylylene = c1cc(C[*:1])cc(C[*:2])c1; Orn(Me2) = CN(C)CCC[C@H](N)C(=O)O; Isovaleryl = CC(C)CC(=O)*; dPip = O=C(O)[C@H]1CCCCN1; hSer = N[C@@H](CCO)C(=O)O; AGLU′ = not defined here; Ac6c = NC1(C(=O)O)CCCCC1; Nle = CCCC[C@H](N)C(=O)O; dNMeA = CN[C@H](C)C(=O)O; 4Amc = not defined here; APAc = not defined here; Apr = not defined here; AEEA = NCCOCCOCC(=O)O; Sar = CNCC(=O)O

To fix the notation:
B1: 3BP-3281 (peptide)
peptide: Ac-VYCE[dNMeA]DWLTWAC-NH2
modifications: linker 3-12 via mXylylene
SMILES: CC(=O)N[C@H](C(=O)N[C@@H](Cc1ccc(O)cc1)C(=O)N[C@H]1CSCc2cccc(c2)CSC[C@@H](C(N)=O)NC(=O)[C@H](C)NC(=O)[C@H](Cc2c[nH]c3ccccc23)NC(=O)[C@H]([C@@H](C)O)NC(=O)[C@H](CC(C)C)NC(=O)[C@H](Cc2c[nH]c3ccccc23)NC(=O)[C@H](CC(=O)O)NC(=O)[C@@H](C)N(C)C(=O)[C@H](CCC(=O)O)NC1=O)C(C)C
B2: 3BP-4097 (peptide)
peptide: {DOTA-APAc}-VYCE[dmo]DWLTWSC-NH2
modifications: linker 3-12 via mXylylene; reading uncertain
B3: 3BP-3868 (peptide)
peptide: {DOTA-4Amc}-YCE[dP]DWLTWSC-NH2
modifications: linker 2-11 via mXylylene; reading uncertain
B4: 3BP-4236 (peptide)
peptide: {DOTA-APAc″}-VYCE[dP]D[Af3(Iva)]LTWSC-NH2
modifications: linker 3-12 via mXylylene
B5: 3BP-4096 (peptide)
peptide: {DOTA-APAc}-VYC[Orn(Me2)][dP]DWLTWSC-NH2
modifications: linker 3-12 via mXylylene; reading uncertain
B6: 3BP-4242 (peptide)
peptide: {DOTA-APAc″}-VYCE[dP]D[Af3(MSAc)]LTWSC-NH2
modifications: linker 3-12 via mXylylene
B7: 3BP-3840 (peptide)
peptide: Ac-K(DOTA)VYCE[dP]DWLTWSC-NH2
modifications: linker 4-13 via 3MeBn
B8: 3BP-4101 (peptide)
peptide: {DOTA-APAc}-VYC[hSer][dP]DWLTWSC-NH2
modifications: linker 3-12 via mXylylene; reading uncertain
B9: 3BP-3873 (peptide)
peptide: Ac-SYCE[dP]DWLTWE([Apr-DOTA])C-NH2
modifications: linker 3-12 via mXylylene; reading uncertain
B10: 3BP-3874 (peptide)
peptide: Ac-VFCE[dP]DWLTWE([Apr-DOTA])C-NH2
modifications: linker 3-12 via mXylylene; reading uncertain
B11: 3BP-4119 (peptide)
peptide: {DOTA-APAc}-VYCE[dE](AGLU′)DWLTWSC-NH2
modifications: linker 3-12 via mXylylene; reading uncertain
B12: 3BP-4104 (peptide)
peptide: {DOTA-APAc}-VYCQ[dP]DWLTWSC-NH2
modifications: linker 3-12 via mXylylene; reading uncertain
B13: 3BP-4112 (peptide)
peptide: {DOTA-APAc}-VE(AGLU′)CE[dP]DWLTWSC-NH2
modifications: linker 3-12 via mXylylene; reading uncertain
B14: 3BP-4105 (peptide)
peptide: {DOTA-APAc}-VSCE[dP]DWLTWSC-NH2
modifications: linker 3-12 via mXylylene; reading uncertain
B15: 3BP-4144 (peptide)
peptide: {DOTA-APAc″}-VYCE[dP]D[ξTrp(1-Me)]LTWSC-NH2
modifications: linker 3-12 via mXylylene; not fully specified
B16: 3BP-4158 (peptide)
peptide: {DOTA-APAc″}-VYCE[dP]D[ξTrp(7-Me)]LTWSC-NH2
modifications: linker 3-12 via mXylylene; not fully specified
B17: 3BP-3289 (peptide)
peptide: Ac-VYCE[Sar]D[Trp(5-Cl)]LTWQC-NH2
modifications: linker 3-12 via mXylylene
SMILES: CC(=O)N[C@H](C(=O)N[C@@H](Cc1ccc(O)cc1)C(=O)N[C@H]1CSCc2cccc(c2)CSC[C@@H](C(N)=O)NC(=O)[C@H](CCC(N)=O)NC(=O)[C@H](Cc2c[nH]c3ccccc23)NC(=O)[C@H]([C@@H](C)O)NC(=O)[C@H](CC(C)C)NC(=O)[C@H](Cc2c[nH]c3ccc(Cl)cc23)NC(=O)[C@H](CC(=O)O)NC(=O)CN(C)C(=O)[C@H](CCC(=O)O)NC1=O)C(C)C
B18: 3BP-4135 (peptide)
peptide: {DOTA-APAc}-VYCE[dP]D[Phe(3-CF3)]LTWSC-NH2
modifications: linker 3-12 via mXylylene; not fully specified; reading uncertain
B19: 3BP-4095 (peptide)
peptide: {DOTA-APAc}-V[Orn(Me2)]CE[dP]DWLTWSC-NH2
modifications: linker 3-12 via mXylylene; reading uncertain
B20: 3BP-3859 (peptide)
peptide: {DOTA}-YCE[dP]DWLTWSC-NH2
modifications: linker 2-11 via mXylylene
SMILES: CC(C)C[C@@H]1NC(=O)[C@H](Cc2c[nH]c3ccccc23)NC(=O)[C@H](CC(=O)O)NC(=O)[C@H]2CCCN2C(=O)[C@H](CCC(=O)O)NC(=O)[C@@H](NC(=O)[C@H](Cc2ccc(O)cc2)NC(=O)CN2CCN(CC(=O)O)CCN(CC(=O)O)CCN(CC(=O)O)CC2)CSCc2cccc(c2)CSC[C@@H](C(N)=O)NC(=O)[C@H](CO)NC(=O)[C@H](Cc2c[nH]c3ccccc23)NC(=O)[C@H]([C@@H](C)O)NC1=O
B21: 3BP-3740 (peptide)
peptide: Isovaleryl-YCE[dP]DWLTWE([Apr-AEEA-DOTA])C-NH2
modifications: linker 2-11 via 3MeBn; reading uncertain
B22: 3BP-4133 (peptide)
peptide: {DOTA-APAc}-VYCE[dP]D[Phe(3,4-Cl2)]LTWSC-NH2
modifications: linker 3-12 via mXylylene; not fully specified; reading uncertain
B23: 3BP-3584 (peptide)
peptide: {DOTA-APAc}-VYCE[dP]DW[Ac6c]TWSC-NH2
modifications: linker 3-12 via mXylylene; reading uncertain
B24: 3BP-3283 (peptide)
peptide: Ac-VYCE[dPip]DWLTWAC-NH2
modifications: linker 3-12 via mXylylene
SMILES: CC(=O)N[C@H](C(=O)N[C@@H](Cc1ccc(O)cc1)C(=O)N[C@H]1CSCc2cccc(c2)CSC[C@@H](C(N)=O)NC(=O)[C@H](C)NC(=O)[C@H](Cc2c[nH]c3ccccc23)NC(=O)[C@H]([C@@H](C)O)NC(=O)[C@H](CC(C)C)NC(=O)[C@H](Cc2c[nH]c3ccccc23)NC(=O)[C@H](CC(=O)O)NC(=O)[C@H]2CCCCN2C(=O)[C@H](CCC(=O)O)NC1=O)C(C)C
B25: 3BP-3870 (peptide)
peptide: {DOTA-Ttds(3)}-[Nle]YCE[dP]DWLTWSC-NH2
modifications: linker 3-12 via mXylylene
B26: 3BP-4053 (peptide)
peptide: {DOTA(In)}-YCE[dP]KWLEWSC-NH2
modifications: linker 2-11 via mXylylene; lactam 5-8; also: indium complexed by DOTA

One test addresses T1, Fc-fusion protein of human carbonic anhydrase IX (human, UniProt Q16790 38-414). The test can be described thus: SPR, captured hCAIX-Fc; pKD category A: >8.0. As to the method: (§1) Stock solutions of test compounds were prepared by dissolving each compound in DMSO. DMSO stock solution were diluted 1:1000 in Running Buffer without DMSO. […] SPR binding analyses were performed in Single Cycle Kinetic (SCK) mode at 25° C.
(§2) For each test compound, SPR raw data in the form of resonance units (RU) were plotted as sensorgrams using the Biacore™ T200 control software. The signal from the blank sensorgram was subtracted from that of the test compound sensorgram (blank corrected). The blank corrected sensorgram was corrected for baseline drift by subtracting the sensorgram of a SCK run without the test compound (running buffer only). […] Raw data and fit results were imported as text files in IDBS. The pKD value (negative decadic logarithm of dissociation constant) was calculated in the IDBS excel template.
A general note: SPR reads the build-up and loss of mass on a sensor chip optically.
Molecule B1 registered a pKD above 8 pkd.

B2 returned a pKD above 8 pkd.

Molecule B3 returned a pKD above 8 pkd.

In turn, B4 displayed a pKD above 8 pkd.

B5 came in with a pKD above 8 pkd.

With B6, the pKD is above 8 pkd.

On to B7, for which the pKD is above 8 pkd.

Regarding B8, the pKD is above 8 pkd.

Molecule B9 displayed a pKD above 8 pkd.

On to B10, for which the pKD is above 8 pkd.

The molecule B11 had a pKD above 8 pkd.

The molecule B12 yielded a pKD above 8 pkd.

B13 returned a pKD above 8 pkd.

As to B14, the pKD is above 8 pkd.

In turn, B15 had a pKD above 8 pkd.

For B16, the pKD was above 8 pkd.

For the molecule B17, the pKD is above 8 pkd.

Take B18: the pKD is above 8 pkd.

In turn, B19 came in with a pKD above 8 pkd.

With B20, the pKD is above 8 pkd.

In the case of B21, the pKD is above 8 pkd.

Molecule B22 registered a pKD above 8 pkd.

B23 had a pKD above 8 pkd.

Turning to B24, the pKD was above 8 pkd.

Take B25: the pKD was above 8 pkd.

Molecule B26 displayed a pKD above 8 pkd.

The next test concerns the target T1, Fc-fusion protein of human carbonic …. The test can be described thus: SPR, captured hCAIX-Fc; t1/2 category B: 5.1-15.0 min. As to the method:
as §1, §2
B1: the “t1/2 (half-life of the complex, SPR)” value fell in the range of 5.1 to 15 min.

As for B2, the “t1/2 (half-life of the complex, SPR)” value was 5.1 to 15 min.

For the molecule B3, the “t1/2 (half-life of the complex, SPR)” value lay in the range of 5.1 to 15 min.

For B4, the “t1/2 (half-life of the complex, SPR)” value lay in the range of 5.1 to 15 min.

In the case of B5, the “t1/2 (half-life of the complex, SPR)” value is 5.1 to 15 min.

As for B6, the “t1/2 (half-life of the complex, SPR)” value lay in the range of 5.1 to 15 min.

For the molecule B7, the “t1/2 (half-life of the complex, SPR)” value fell in the range of 5.1 to 15 min.

With B8, the “t1/2 (half-life of the complex, SPR)” value fell in the range of 5.1 to 15 min.

In the case of B9, the “t1/2 (half-life of the complex, SPR)” value lay in the range of 5.1 to 15 min.

As for B10, the “t1/2 (half-life of the complex, SPR)” value was 5.1 to 15 min.

For B11, the “t1/2 (half-life of the complex, SPR)” value lay within 5.1 to 15 min.

Turning to B12, the “t1/2 (half-life of the complex, SPR)” value is 5.1 to 15 min.

Turning to B13, the “t1/2 (half-life of the complex, SPR)” value was 5.1 to 15 min.

As to B14, the “t1/2 (half-life of the complex, SPR)” value was 5.1 to 15 min.

For B15, the “t1/2 (half-life of the complex, SPR)” value is 5.1 to 15 min.

In the case of B16, the “t1/2 (half-life of the complex, SPR)” value lay in the range of 5.1 to 15 min.

On to B17, for which the “t1/2 (half-life of the complex, SPR)” value lay in the range of 5.1 to 15 min.

As for B18, the “t1/2 (half-life of the complex, SPR)” value lay in the range of 5.1 to 15 min.

With B19, the “t1/2 (half-life of the complex, SPR)” value is 5.1 to 15 min.

Regarding B20, the “t1/2 (half-life of the complex, SPR)” value was 5.1 to 15 min.

Turning to B21, the “t1/2 (half-life of the complex, SPR)” value lay within 5.1 to 15 min.

As to B22, the “t1/2 (half-life of the complex, SPR)” value is 5.1 to 15 min.

For B23, the “t1/2 (half-life of the complex, SPR)” value lay within 5.1 to 15 min.

Regarding B24, the “t1/2 (half-life of the complex, SPR)” value was in the range of 5.1 to 15 min.

Turning to B25, the “t1/2 (half-life of the complex, SPR)” value was 5.1 to 15 min.

As to B26, the “t1/2 (half-life of the complex, SPR)” value was in the range of 5.1 to 15 min.

The values above are taken from US20250339569A1 (3B PHARMACEUTICALS, published 2025).
